This note sets out measurements from patent US11110115B2, “Nucleic acid molecule with anti-inflammatory and anti-coagulant and organ-protective properties” (APTAHEM AB, priority 2017, dated 2021).

“Also recorded” adds a separate entry of the source.

The nature of data set [1]: Comparable ex vivo APTT study, canine.
Data set [2] can be described thus: Expanded toxicology panel of serum in LPS-induced shock. It is filed as in vivo, C57BL/6 mice. The conditions noted are these: blood at Hour 28. As for the experimental part: In this study, female C57BL/6 mice of 10-12 weeks old (Taconic Biosciences) were used. Animals had free access to autoclaved and acidified drinking water. Animals were housed under standard laboratory conditions, air conditioned and filtered with adequate fresh air supply. Animals were kept in a climate-controlled environment. Lipopolysaccharide (LPS) from E. coli (O111:B4) was diluted in PBS. SEQ ID NO:2 was stored in powder form at 4° C. until use. Powder was added to saline and vortexed into solution to prepare SEQ ID NO:2 stock solution. […] For all other groups, LPS was injected intraperitoneally at 10 mg/kg. Mice were intravenously injected 15 minutes and 60 minutes after LPS administration with SEQ ID NO:2 at concentrations of 10, 25, 50 and 100 mg/kg. […] Blood collected at Hour 28 was analyzed for expanded toxicology panel performed by IDEXX Laboratories, Inc. (N. Grafton, Mass.). We attempted to collect enough blood to run each analysis 5 times for each group. The extended toxicology analysis measured concentrations of AST, ALT, creatine kinase, albumin, total protein, BUN, cholesterol, glucose, phosphorus, triglycerides, HDL cholesterol, bile acid, LDL cholesterol, total bilirubin, GGT, bilirubin conjugated, and creatinine. Here, results are shown for AST, ALT, creatine kinase, albumin, total protein, BUN, cholesterol, phosphorus, triglycerides, cholesterol, and creatinine.

A short description of data set [3]: Comparable ex vivo APTT study, non-human primate.
Data set [4] in a line: Comparable ex vivo APTT study, mouse.
A short description of data set [5]: Comparable ex vivo APTT study, human.
Data set [6] is described as follows: Ferric chloride induced arterial thrombosis model (clot weight and size). The class given is in vivo, Sprague-Dawley rats. The conditions noted are these: 60 min after FeCl3; SEQ ID NO:2 5, 20, 40 mg/kg i.v.; Rivaroxaban 10 mg/kg oral; Warfarin 0.5 mg/kg i.v. The method, then:
Animal handling was performed according to guidelines of the National Institute of Health (NIH) and the Association for Assessment and Accreditation of Laboratory Animal Care (AAALAC). A total of 36 Sprague-Dawley rats (Envigo RMS) were divided into six groups comprising of 6 animals per group (3 males and 3 females). […] Both were fed ad libitum a rodent diet. Animals had free access to autoclaved and acidified drinking water. Animals were housed under standard laboratory conditions, air conditioned and filtered with adequate fresh air supply. Animals were kept in a climate controlled environment.
SEQ ID NO:2 (Biospring) (100 mg) was dissolved in 5 ml saline to form a stock solution of 20 mg/ml. Vehicle (saline, Teva) as ready to use for i.v. administration. Rivaroxaban (Bayer, Pharamseed Ltd) dosing solution was diluted at 10 mg/kg (Group 2M). Warfarin (Ceriliant, Pharmaseed Ltd) was diluted at 0.5 mg/kg (Group 3M). […]
Male and Female rats were anaesthetized by intraperitoneal injection of ketamine/xylazine. […] The time needed for occlusion to occur was measured for up to 60 min, and occlusion time was assigned a value of 60 min for vessels that […].
Clot formation was followed for 60 minutes following application of FeCl3. […] The artery wall was cut longitudinally; clot was taken out, weighed and measured by caliper. […]

Data set [7] in a line: Activated partial thromboplastin time (APTT) in arteriovenous shunt model. Conditions: SEQ ID NO:2 33.3 mg/kg i.v. 5 min prior; Rivaroxaban 10 mg/kg p.o. 90 min prior. It is filed as in vivo, Sprague-Dawley male rats.
[8] abbreviates: 50 mg/kg at 15 and 60 min after LPS.
Where [9] appears, read: 50 mg/kg at 60 and 120 min after LPS.
[10] abbreviates: groups treated i.v. with SEQ ID NO:2 after LPS.
Where [11] appears, read: overall, groups treated i.v. with SEQ ID NO:2.

B1: SEQ ID NO:2: nucleic acid sequence of SEQ ID NO:1 in which each C and U is fluorinated to increase stability in plasma (nucleic acid)
chain: GGGAAUUCGAGCUCGGUACCAACAAUACGACUACACCAUCAAAAGUAUUAUCUUGCAUCGAAGGUUGGCACGUAGCAAGCUCUGCAGUCG
modifications: fluorinated C and U; (6)..(7) uracil is fluorinated; (8)..(8) cytosine is fluorinated; (12)..(12) cytosine is fluorinated; (13)..(13) uracil is fluorinated; (14)..(14) cytosine is fluorinated; (17)..(17) uracil is fluorinated; (19)..(20) cytosine is fluorinated; (23)..(23) cytosine is fluorinated; (26)..(26) uracil is fluorinated; (28)..(28) cytosine is fluorinated; (31)..(31) cytosine is fluorinated; (32)
As to B1, the “positive effect on APTT” value in data set [1] is on record as “confirmed”. In data set [2] (25 mg/kg at 15 and 60 min after LPS), the Cholesterol in serum result is “significant improvements”. In data set [2] (setting [8]), the Cholesterol in serum result is on record as “significant improvements” and the Creatinine in serum entry was “significant improvements”. Besides, in data set [2] (setting [9]), the Creatinine in serum result is “significant improvements” and the Triglycerides in serum entry is reported as “significant improvements”. For the same molecule, in data set [2] (setting [10]), the “serum concentration of ALT compared to vehicle treated group” value is reported as “did not reach statistical significance”, the “serum concentration of AST compared to vehicle treated group” value is given as “improvements; also recorded: significantly improved”, the “serum concentration of BUN compared to vehicle treated group” value is recorded as “improvements; also recorded: significantly improved” and the “serum concentration of creatine kinase compared to vehicle treated group” value is recorded as “did not reach statistical significance”. Moreover, in data set [2] (setting [10]), the “serum concentration of phosphorus compared to vehicle treated group” value is given as “improvements; also recorded: significantly improved”. For the same molecule, in data set [2] (setting [11]), the “serum concentration of cholesterol compared to vehicle treated group” value is on record as “significantly improved”, the “serum concentration of creatinine compared to vehicle treated group” value is on record as “significantly improved” and the “serum concentration of triglycerides compared to vehicle treated group” value is “significantly improved”. The “positive effect on APTT” value in data set [3] is listed as “confirmed”. In data set [4], the “positive effect on APTT” value is “confirmed”. Moreover, the “positive effect on APTT” value in data set [5] is given as “confirmed”. In addition, in data set [6], the “clot size compared to control group (Vehicle)” value is recorded as “reduction” and the “clot weight compared to control group (Vehicle)” value is listed as “reduction”. Moreover, the “Activated Partial Thromboplastin Time (APTT) compared to vehicle group” value in data set [7] is on record as “significant increase”.
